Results as given in the MegaScale stability set (Tsuboyama et al. 2023).

B1: EEHEE_rd4_0763 (parent)
chain: LTVHVGNVTYHFDNPEQAEEWAKRMAKKYQGQIHVKDGQFRIE

Variants of: B1
Assay: folding stability dG (cDNA display proteolysis); higher = more stable
Conditions: PBS, room temperature

**Q.** With LTVHVGNVTYHFDNPEQAEEWAQRMAKKYQGQIHVKDGQFRIE as the variant, how does the “folding stability dG” value read?
**A.** 6.51 kJ/mol

**Q.** For LTVHVGNVTYHFDNPEQAEEWAVRMAKKYQGQIHVKDGQFRIE, which “folding stability dG” value is on record?
**A.** 6.53 kJ/mol

**Q.** With LTVHVGNVTYHFDNPEQAEEWAERMAKKYQGQIHVKDGQFRIE as the variant, how does the “folding stability dG” value read?
**A.** 5.04 kJ/mol

**Q.** With LTVHVGNVTYHFDNPEQAEEWAKRMAKKYQGQIWVKDGQFRIE as the variant, how does the “folding stability dG” value read?
**A.** 5.93 kJ/mol

**Q.** For LTVHVGNVTYHFDNPEQAEEWAKRMAKKYQGQIGVKDGQFRIE, which “folding stability dG” value is on record?
**A.** 4.19 kJ/mol

**Q.** For LTVHVGNVTYHFDNPEQAECWAKRMAKKYQGQIHVKDGQFRIE, which “folding stability dG” value is on record?
**A.** 10.2 kJ/mol

**Q.** For LTVHVGAVTYHFDNPEQAEEWAKRMAKKYQGQIHVKDGQFRIE, which “folding stability dG” value is on record?
**A.** 6.68 kJ/mol

**Q.** For LTVHVGNVTYHFDNHEQAEEWAKRMAKKYQGQIHVKDGQFRIE, which “folding stability dG” value is on record?
**A.** 7.12 kJ/mol

**Q.** Which “folding stability dG” value does the source give for LTVHVGNVTYHFDNWEQAEEWAKRMAKKYQGQIHVKDGQFRIE here?
**A.** 7.97 kJ/mol

**Q.** With LTVHVGNVTYHFDNREQAEEWAKRMAKKYQGQIHVKDGQFRIE as the variant, how does the “folding stability dG” value read?
**A.** 7.87 kJ/mol

**Q.** Which “folding stability dG” value does the source give for LTVQVGNVTYHFDNPEQAEEWAKRMAKKYQGQIHVKDGQFRIE here?
**A.** 7.2 kJ/mol

**Q.** Which “folding stability dG” value does the source give for LTVHVGNVTYHFDNPEQAEEWAKRMAKKYQGQIHVRDGQFRIE here?
**A.** 6.31 kJ/mol

**Q.** For LTVHVGNVTYHFDNPEQAEEWAKRMAKKYQGQIHVNDGQFRIE, which “folding stability dG” value is on record?
**A.** 6.23 kJ/mol

**Q.** For LTVHVGNVTYHFDNPEQAEEWAKRMAKKYQGQIHVMDGQFRIE, which “folding stability dG” value is on record?
**A.** 7 kJ/mol

**Q.** With LTVHVGNVTYHFDNPEQAEEWAKRMAKKYQGQIHVYDGQFRIE as the variant, how does the “folding stability dG” value read?
**A.** 7.1 kJ/mol

**Q.** With LTVHVQNVTYHFDNPEQAEEWAKRMAKKYQGQIHVKDGQFRIE as the variant, how does the “folding stability dG” value read?
**A.** 4.92 kJ/mol

**Q.** For LTVHVLNVTYHFDNPEQAEEWAKRMAKKYQGQIHVKDGQFRIE, which “folding stability dG” value is on record?
**A.** 6.15 kJ/mol

**Q.** With LTVHVDNVTYHFDNPEQAEEWAKRMAKKYQGQIHVKDGQFRIE as the variant, how does the “folding stability dG” value read?
**A.** 5.97 kJ/mol

**Q.** For LTVHVGNVEYHFDNPEQAEEWAKRMAKKYQGQIHVKDGQFRIE, which “folding stability dG” value is on record?
**A.** 5.38 kJ/mol

**Q.** Which “folding stability dG” value does the source give for LTVHVGNVYYHFDNPEQAEEWAKRMAKKYQGQIHVKDGQFRIE here?
**A.** 6.08 kJ/mol

**Q.** With LTVHVGNVKYHFDNPEQAEEWAKRMAKKYQGQIHVKDGQFRIE as the variant, how does the “folding stability dG” value read?
**A.** 5.75 kJ/mol

**Q.** Which “folding stability dG” value does the source give for LTVHVGNVTYHFDNPEQAEEWAKRMAKKYQGQWHVKDGQFRIE here?
**A.** 5.61 kJ/mol

**Q.** With LTVHVGNVTYHFDNPEQAEEWAKRMAKKYQGQPHVKDGQFRIE as the variant, how does the “folding stability dG” value read?
**A.** 3.49 kJ/mol

**Q.** With LTVHVGNVTYHFDNPEQAEEWAKRMAKKYQGFIHVKDGQFRIE as the variant, how does the “folding stability dG” value read?
**A.** 6.4 kJ/mol

**Q.** For LTVHVGNVTYHFDNPEQAEEWAKRMAKKYQGAIHVKDGQFRIE, which “folding stability dG” value is on record?
**A.** 6.35 kJ/mol

**Q.** Which “folding stability dG” value does the source give for LTVHVGNVTYHFDNPEQAEEWAKRMAKKYQGNIHVKDGQFRIE here?
**A.** 5.59 kJ/mol

**Q.** Which “folding stability dG” value does the source give for LTVHVGNVTYHFDNPEQAEEWAKRHAKKYQGQIHVKDGQFRIE here?
**A.** 3.16 kJ/mol

**Q.** Which “folding stability dG” value does the source give for LTVHVGNVTYHYDNPEQAEEWAKRMAKKYQGQIHVKDGQFRIE here?
**A.** 1.87 kJ/mol

**Q.** With LTVHVGNVTYHWDNPEQAEEWAKRMAKKYQGQIHVKDGQFRIE as the variant, how does the “folding stability dG” value read?
**A.** 2.67 kJ/mol

**Q.** Which “folding stability dG” value does the source give for LTVHVGNVTYHEDNPEQAEEWAKRMAKKYQGQIHVKDGQFRIE here?
**A.** -1.15 kJ/mol

**Q.** With LTVHVGNVTYHFDNPEQAEEWAKRMTKKYQGQIHVKDGQFRIE as the variant, how does the “folding stability dG” value read?
**A.** 3.13 kJ/mol

**Q.** Which “folding stability dG” value does the source give for LTVHVGNVTYHFDNPEQAEEWAKRMSKKYQGQIHVKDGQFRIE here?
**A.** 4.79 kJ/mol

**Q.** For LSVHVGNVTYHFDNPEQAEEWAKRMAKKYQGQIHVKDGQFRIE, which “folding stability dG” value is on record?
**A.** 6.47 kJ/mol

**Q.** For LIVHVGNVTYHFDNPEQAEEWAKRMAKKYQGQIHVKDGQFRIE, which “folding stability dG” value is on record?
**A.** 6.65 kJ/mol

**Q.** Which “folding stability dG” value does the source give for LWVHVGNVTYHFDNPEQAEEWAKRMAKKYQGQIHVKDGQFRIE here?
**A.** 6.26 kJ/mol

**Q.** With LPVHVGNVTYHFDNPEQAEEWAKRMAKKYQGQIHVKDGQFRIE as the variant, how does the “folding stability dG” value read?
**A.** 2.25 kJ/mol

**Q.** With LRVHVGNVTYHFDNPEQAEEWAKRMAKKYQGQIHVKDGQFRIE as the variant, how does the “folding stability dG” value read?
**A.** 6.19 kJ/mol

**Q.** With LTVHVGNVTYHFDNPEQAEEWGKRMAKKYQGQIHVKDGQFRIE as the variant, how does the “folding stability dG” value read?
**A.** 2.76 kJ/mol

**Q.** With LTVHVGNVTYHFDNPEQAEEWWKRMAKKYQGQIHVKDGQFRIE as the variant, how does the “folding stability dG” value read?
**A.** 5.31 kJ/mol

**Q.** Which “folding stability dG” value does the source give for LTVHVGNVTYHFDNPEQAEEWHKRMAKKYQGQIHVKDGQFRIE here?
**A.** 2.78 kJ/mol

**Q.** Which “folding stability dG” value does the source give for LTVHVGNVTYHFDNPEQAEEDAKRMAKKYQGQIHVKDGQFRIE here?
**A.** -1.95 kJ/mol

**Q.** With LTVHVGNVTYHFDNPEQAEEEAKRMAKKYQGQIHVKDGQFRIE as the variant, how does the “folding stability dG” value read?
**A.** 1.43 kJ/mol

**Q.** Which “folding stability dG” value does the source give for KTVHVGNVTYHFDNPEQAEEWAKRMAKKYQGQIHVKDGQFRIE here?
**A.** 6.31 kJ/mol

**Q.** With LTVHVGNVTYHFDNPEQAEEWAKRMAKKYQGQIHVKDGQFRKE as the variant, how does the “folding stability dG” value read?
**A.** 3.94 kJ/mol

**Q.** For LTVHVGNVTYHFANPEQAEEWAKRMAKKYQGQIHVKDGQFRIE, which “folding stability dG” value is on record?
**A.** 6 kJ/mol

**Q.** For LTVHVGNVTYHFGNPEQAEEWAKRMAKKYQGQIHVKDGQFRIE, which “folding stability dG” value is on record?
**A.** 5.74 kJ/mol

**Q.** With LTVHVGNVTYHFHNPEQAEEWAKRMAKKYQGQIHVKDGQFRIE as the variant, how does the “folding stability dG” value read?
**A.** 5.74 kJ/mol

**Q.** For LTVHVGNVTYHFDNPEQAEEWAKRMAKPYQGQIHVKDGQFRIE, which “folding stability dG” value is on record?
**A.** 2.17 kJ/mol

**Q.** For LTVHVGNVTYHFDNPEQAEEWAKRMAKLYQGQIHVKDGQFRIE, which “folding stability dG” value is on record?
**A.** 7.68 kJ/mol

**Q.** With LTVHVGNVTYHFDNPEQAEEWAKGMAKKYQGQIHVKDGQFRIE as the variant, how does the “folding stability dG” value read?
**A.** 3.97 kJ/mol

**Q.** Which “folding stability dG” value does the source give for LTVHVGNVTYHFDNPEQAEEWAKFMAKKYQGQIHVKDGQFRIE here?
**A.** 7.49 kJ/mol

**Q.** Which “folding stability dG” value does the source give for LTVHVGNVTYHFDNPEQAEEWAKRMAMKYQGQIHVKDGQFRIE here?
**A.** 7.3 kJ/mol

**Q.** For LTVHVGNVTYHFDNPEQAEEWAKRMASKYQGQIHVKDGQFRIE, which “folding stability dG” value is on record?
**A.** 6.48 kJ/mol

**Q.** With LTVHVGNVTYHFDNPEQAEEWAKRMAPKYQGQIHVKDGQFRIE as the variant, how does the “folding stability dG” value read?
**A.** 3.03 kJ/mol

**Q.** With LTVHVGNVTYHFDNPEQAEEWAKRMADKYQGQIHVKDGQFRIE as the variant, how does the “folding stability dG” value read?
**A.** 6.01 kJ/mol

**Q.** For LTSHVGNVTYHFDNPEQAEEWAKRMAKKYQGQIHVKDGQFRIE, which “folding stability dG” value is on record?
**A.** 1.42 kJ/mol
